From the supplement of paper PMC10126150
± gives the standard deviation of the averaged measurements.

Tested on: ATP
Assay: switch fluorescence ratio, 500 uM ATP over buffer (Cy3 cluster intensity, sum of 5 cycles each) (fold (ratio)); higher = stronger signal-on switching upon ATP binding; sequences stand for … in TCGTCGGCAGCGTCAGATGTGTATAAGAGACAGTTTTTTTTTTTTTTTTTTTTTTTTT…TC
Settings: aptamer strand: ATP DNA aptamer (quencher-CACCTGGGGGAGTATTGCGGAGGAAGG + anchor), 100 nM annealed; ATP concentration: 500 uM
In short: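 Values give the fluorescence ratio for each switch-domain sequence, averaged from per-cluster ratios of summed target-cycle to summed buffer-cycle Cy3 intensity. The Cy3-labelled switching-strand clusters sat on a modified Illumina MiSeq flow-cell, were annealed to 100 nM quencher-labelled ATP aptamer, and were imaged in selection buffer, then after 15 min with 500 uM ATP at 22 °C. Five cycles ran with NaOH stripping and re-annealing between them, and clusters outside 100-1000 RFU were excluded.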
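Also: ATP exposure 15 min at 22 °C before imaging.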

Row | Sequence | switch fluorescence ratio
1 | GCTATTATAT | 1.02 ± 0.015
2 | GGCTACGAGA | 1.04 ± 0.018
3 | GTTAAAATTT | 1.001 ± 0.0014
4 | GGAAATGTCG | 0.918 ± 0.078
5 | ACCGGGGGGT | 1.37 ± 0.22
6 | TTAGCATCTA | 0.999 ± 0.018
7 | TTGGGTATGC | 0.99 ± 0.046
8 | TGAGGGGAAT | 1 ± 0.012
9 | CGGACTAGTT | 0.994 ± 0.022
10 | CCAGACTTTT | 0.999 ± 0.043
11 | TCAGGGGGAT | 1.02 ± 0.028
12 | TATGATAACT | 1.031 ± 0.0077
13 | CGGGGTGGCT | 0.977 ± 0.16
14 | AGAGGGAGAT | 0.9876 ± 0.0098
15 | TTTTCCTTTT | 1.04 ± 0.082
16 | ATCAACGGAA | 1.08 ± 0.013
17 | AATGTGTTTG | 0.992 ± 0.042
18 | GGGAAGGGTG | 1.08 ± 0.089
19 | GGGTAATTGA | 0.99 ± 0.032
20 | CGCTTAAGTT | 1.004 ± 0.0013
21 | TCTGGGGGGA | 1.01 ± 0.019
22 | TCCTTAGTTC | 0.969 ± 0.035
23 | GGGATAAAAT | 1.01 ± 0.017

Row | Sequence | switch fluorescence ratio
24 | TGGTTACGCT | 1.028 ± 0.0084
25 | TATAAGGAGG | 0.9935 ± 0.0033
26 | TCTTTTTTCC | 1.1 ± 0.1
27 | ATAGCACGTT | 1.03 ± 0.025
28 | ATTTAATATG | 0.97 ± 0.011
29 | AAAGACACTC | 1.04 ± 0.071
30 | CGGATTCGGA | 1.012 ± 0.01
31 | AGTTGGGTTG | 1 ± 0.023
32 | TGGAAGGTT | 0.987 ± 0.019
33 | CAGGTTTGGC | 0.9775 ± 0.002
34 | TACAGTAGAT | 1.06 ± 0.038
35 | TAGCGGTTGT | 0.999 ± 0.021
36 | CTATTTAGTC | 0.9496 ± 0.0052
37 | CAGACTCGGT | 1.02 ± 0.024
38 | ACATTTTACT | 1.12 ± 0.014
39 | TGCTGGAAGT | 0.977 ± 0.032
40 | AATGAGTCGG | 0.998 ± 0.033
41 | GCATTTTATT | 0.9938 ± 0.0026
42 | TGTTCCGGGT | 0.999 ± 0.048
43 | CGAGGGGATG | 1.006 ± 0.0088
44 | GGTTTAGGCC | 0.991 ± 0.03
45 | TCAAGGGTCC | 0.996 ± 0.07
46 | GTGTAAAGGC | 0.96 ± 0.021

Row | Sequence | switch fluorescence ratio
47 | GCATACAGGA | 1.02 ± 0.024
48 | ATTCCCGGTC | 1.01 ± 0.066
49 | ATATGATTAG | 0.993 ± 0.021
50 | GGGTGAAAGG | 0.996 ± 0.025
51 | TTTGTGAAAG | 1.008 ± 0.006
52 | GAGGGGGCAC | 1.03 ± 0.042
53 | GGTACGTTTT | 1.03 ± 0.024
54 | CGGGTCTTGT | 0.98864 ± 0.00032
55 | GTTCTTGTTC | 1.004 ± 0.0069
56 | GGGAGCCTAT | 1 ± 0.042
57 | CGGGTAGTTG | 0.995 ± 0.014
58 | ATCGCAGATT | 1.03 ± 0.019
59 | AATGAGTGTT | 1.02 ± 0.042
60 | TTGATTTTGA | 1.04 ± 0.037
61 | AGTTTTTAGA | 1.03 ± 0.033
62 | TTGGAATGGT | 1.04 ± 0.029
63 | TTGGGTCCGG | 1.03 ± 0.038
64 | TAATGTGTGT | 1.016 ± 0.0091
65 | AGATATTTTT | 0.975 ± 0.023
66 | GTGGATGGAC | 1.03 ± 0.022
67 | TTTCGCCGTT | 1.003 ± 0.0055
68 | GCGAAGGGGT | 1.02 ± 0.031
69 | TTAAGGGATG | 1.03 ± 0.043

Row | Sequence | switch fluorescence ratio
70 | AAGATTTTAC | 1.01 ± 0.019
71 | AATTGCCGTG | 0.99946 ± 0.00023
72 | TGGCTGAGAA | 0.9723 ± 0.0028
73 | TTTTGAGCAC | 1.16 ± 0.26
74 | ATAGTGTGTT | 0.989 ± 0.021
75 | TGGATGTCTG | 0.978 ± 0.044
76 | CGGCGCTTCT | 1.1 ± 0.028
77 | ACCCCGGTCT | 1.04 ± 0.011
78 | TAAAATTCGG | 1.01 ± 0.018
79 | TTCGGCTTTT | 0.983 ± 0.024
80 | GTTGGGCGGG | 0.991 ± 0.035
81 | ACTGTGCACC | 1.05 ± 0.052
82 | TGGGTCTGAT | 0.9865 ± 0.0031
83 | ACTATGCTTT | 1.021 ± 0.0059
84 | TGGTTGGGAG | 1.01 ± 0.035
85 | GTTAGTATTG | 0.998 ± 0.021
86 | AGGGTTAGTT | 1.01 ± 0.013
87 | TTCTTTGATT | 1 ± 0.011
88 | GGTCTGATGG | 0.987 ± 0.035
89 | ACATATATGG | 0.9752 ± 0.0051
90 | TTGGCCTAAA | 0.954 ± 0.04
91 | CGGGTAGGTG | 1.03 ± 0.058
92 | TTGTTCGATT | 1 ± 0.034

Row | Sequence | switch fluorescence ratio
93 | GCGGTACTGC | 0.999 ± 0.019
94 | CAGGGGCGGA | 1.04 ± 0.03
95 | TAGACTTTAG | 1.0314 ± 0.0007
96 | TGTATCTCTG | 1.02 ± 0.02
97 | GCTCGGATAA | 1.0306 ± 0.00026
98 | TCGTGGGTAT | 0.998 ± 0.025
99 | TCAGACTTGC | 1 ± 0.035
100 | TCAGGAGGGC | 0.999 ± 0.016
101 | TCTGTCCCTT | 1.01 ± 0.024
102 | ACTAGTGCGG | 1.01 ± 0.028
103 | CTTACAGCTT | 1.04 ± 0.023
104 | AGGTGTATGT | 1.01 ± 0.061
105 | CCGAGTTTGT | 1.05 ± 0.011
106 | GCGGGGGAAG | 1 ± 0.02
107 | TAGCGGGGCA | 0.996 ± 0.046
108 | CCAAAGGGAT | 1.28 ± 0.38
109 | AAGGGGAAAA | 0.983 ± 0.02
110 | TAAAAACGTT | 1.07 ± 0.086
111 | GTTCGACTCC | 1.15 ± 0.014
112 | GCATCCGTCG | 1.04 ± 0.031
113 | TAAGGGCCCG | 0.991 ± 0.069
114 | TTAGATTCGG | 0.997 ± 0.039
115 | AAATTGGGCG | 0.983 ± 0.021

Row | Sequence | switch fluorescence ratio
116 | TCGGAGTGCT | 1.04 ± 0.042
117 | TAGGATGGTT | 0.984 ± 0.013
118 | TTTGTAGTTT | 1.03 ± 0.055
119 | TCTTTCGGTG | 1.02 ± 0.04
120 | AGACTGGTTG | 0.993 ± 0.035
121 | TTGGAGGGCT | 0.978 ± 0.0032
122 | AAAAAGAATG | 0.973 ± 0.03
123 | GGTAGAGGGA | 0.9783 ± 0.0085
124 | GGGAAAGAGC | 1.151 ± 0.0064
125 | GGTATACTTA | 1.04 ± 0.0075
126 | GACGAATCAG | 0.97 ± 0.018
127 | CTAGGGAAAG | 0.989 ± 0.057
128 | TGGGGTTA | 0.98448 ± 0.00037
129 | TTGTTTTTTT | 1 ± 0.05
130 | GCAGGCCCGA | 1.009 ± 0.0034
131 | GGTGTGATGG | 0.9512 ± 0.0085
132 | CGTGGGTAGA | 1.06 ± 0.09
133 | CGTTGGGACG | 1.0042 ± 0.00087
134 | GGTGATGTTA | 0.9786 ± 0.0049
135 | GATCGGGGAC | 1.03 ± 0.027
136 | TGGCGAGAGG | 1 ± 0.022
137 | TACGTTTCC | 1.138 ± 0.0089
138 | AAAATTGTTG | 0.988 ± 0.049

Row | Sequence | switch fluorescence ratio
139 | TAAAATGGAA | 1.05 ± 0.1
140 | TTGGTGCTGG | 1.01 ± 0.027
141 | AGCAACCGGT | 1.1 ± 0.016
142 | AGGGAGGGTA | 0.9889 ± 0.0098
143 | GCGCAAATTT | 0.999 ± 0.017
144 | CTGATAGTTG | 1.04 ± 0.0013
145 | GGTTTCGGTT | 1.5 ± 0.86
146 | ATGTCCGGTT | 1 ± 0.019
147 | CGCAGCGATG | 2.66 ± 0.11
148 | GGGGTATGCT | 1.03 ± 0.032
149 | GCCGGAGTTA | 1.06 ± 0.017
150 | AGTAAAGTTA | 1.008 ± 0.008
151 | TAAGGGGTGT | 1.03 ± 0.027
152 | CAATTTTGGT | 1.01 ± 0.031
153 | GTTTGAGGCT | 1 ± 0.046
154 | AATTCTAATA | 0.9997 ± 0.0033
155 | TTTAGTTATT | 0.998 ± 0.017
156 | TGGGGGAATA | 0.999 ± 0.03
157 | TATTTAACTT | 1.014 ± 0.005
